# Measurements published in EP4361176A1.
# Numbering of substitutions follows the chain as printed.
# B1: 04H1654-KT462/04L1610-lam1//04H1656-HT445/04L1610-lam1 (antibody, human IgG1, lambda)
# heavy 1: QVQLVESGGGVVQPGGSLRLSCAASGFTFSSKTMNWVRQAPGKGLEWVSSISTQSHYIYYARSVRGRFTISRDNAKNSLYLQMNSLRAEDTAVYYCARYGKREDMLWVFDYWGQGTLVTVSSASTKGPSVFPLAPSSKSTSGGTAALGCLVKDYFPEPVTVSWNSGALTSGVHTFPAVLQSSGLYSLSSVVTVPSSSLGTQTYICNVNHKPSNTKVDKRVEPKSCDKTHTCPPCPAPEFQWGPMVFLFPPKPKDVLMISRTPEVTCVVVDVSDEEPEVKFNWYVDGVEVHNAKTKPREEQYNATYRVVSVLPVLHQDWLNGKEYKCKVSNDALPAPIEKTISKAKGQPREPQVYTLPPSRKEMTKNQVSLTCLVKGFYPSDIAVEWESNGQPENNYKTTPPVLDSDGSFFLYSKLTVDKSRWQQGNVFSCSVMHEALHNHYTQKSLSLSP
# heavy 2: QVQLVESGGGVVQPGGSLRLSCAASGFTFSSKTMNWVRQAPGKGLEWVSSISTQSHYIYYAESVRGRFTISRDNAKNSLYLQMNSLRAEDTAVYYCARYGAREDMLWVFDYWGQGTLVTVSSASTKGPSVFPLAPSSKSTSGGTAALGCLVKDYFPEPVTVSWNSGALTSGVHTFPAVLQSSGLYSLSSVVTVPSSSLGTQTYICNVNHKPSNTKVDKRVEPKSCDKTHTCPPCPAPELLAGPSVFLFPPKPKDVLMISRTPEVTCVVVDVSHEEPEVKFNWYVDGVEVHNAKTKPREEQYNATYRVVSVLPVLHQDWLNGKEYKCKVSNDALPKPDEETISKAKGQPREPQVYTLPPSREEMTKNQVSLTCLVKGFYPSDIAVEWESNGQPENNYKTTPPVLDSDGSFFLYSKLTVDKSRWQQGNVFSCSVMHEALHNHYTQESLSLSP
# light: QSALTQPPSASGSPGQSVTISCEGPSTGVGDYNWVHWYQQHPGKAPKLMIYFTSKKPSGVPDRFSGSKSGNTASLTVSGLQAEDEADYYCQTYAAPLGPMFGGGTKLTVLGQPKAAPSVTLFPPSSEELQANKATLVCLISDFYPGAVTVAWKADSSPVKAGVETTTPSKQSNNKYAASSYLSLTPEQWKSHRSYSCQVTHEGSTVEKTVAPTECS
# B2: 04H1654-KT473/04L1610-lam1//04H1656-HT482/04L1610-lam1 (antibody)
# heavy 1: B1 heavy 1 with N439A, Y441T, Q443R, S445E
# heavy 2: B1 heavy 2 with N439A, Y441T, Q443R, S445E
# light: B1 light
# B3: 04H1654-KT481/04L1610-lam1//04H1656-HT498/04L1610-lam1 (antibody)
# heavy 1: B1 heavy 1 with I337E, N439A, Y441T, Q443R, S445E
# heavy 2: B1 heavy 2 with K335A, D337E, N439A, Y441T, Q443R, S445E
# light: B1 light
# B4: 04H1654-KT461/04L1610-lam1//04H1656-HT443/04L1610-lam1 (antibody, human IgG1, lambda)
# heavy 1: B1 heavy 1 with I337E
# heavy 2: B1 heavy 2 with K335A, D337E
# light: B1 light
# B5: 04H1654-KT461/04L1612-lam1//04H1656-HT443/04L1612-lam1 (antibody, human IgG1, lambda)
# heavy 1: B1 heavy 1 with I337E
# heavy 2: B1 heavy 2 with K335A, D337E
# light: B1 light with N33T, W34Y
# B6: 04H1654-KT473/04L1612-lam1//04H1656-HT482/04L1612-lam1 (antibody)
# heavy 1: B1 heavy 1 with N439A, Y441T, Q443R, S445E
# heavy 2: B1 heavy 2 with N439A, Y441T, Q443R, S445E
# light: B1 light with N33T, W34Y
# B7: 04H1654-KT462/04L1612-lam1//04H1656-HT445/04L1612-lam1 (antibody, human IgG1, lambda)
# heavy 1: B1 heavy 1
# heavy 2: B1 heavy 2
# light: B1 light with N33T, W34Y
# B8: 04H1654-KT481/04L1612-lam1//04H1656-HT498/04L1612-lam1 (antibody)
# heavy 1: B1 heavy 1 with I337E, N439A, Y441T, Q443R, S445E
# heavy 2: B1 heavy 2 with K335A, D337E, N439A, Y441T, Q443R, S445E
# light: B1 light with N33T, W34Y
# Biological target: human FcγRIIb extracellular domain with C-terminal His-tag (human) (UniProt P31994)
# Sequence (P31994 43-217): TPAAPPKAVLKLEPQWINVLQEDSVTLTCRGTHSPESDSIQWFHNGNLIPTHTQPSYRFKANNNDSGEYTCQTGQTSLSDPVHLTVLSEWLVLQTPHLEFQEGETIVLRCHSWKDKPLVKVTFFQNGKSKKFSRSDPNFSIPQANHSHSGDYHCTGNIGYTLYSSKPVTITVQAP
# Assay: SPR; binding amount / that of 04H1637-G1m/04L1610-lam1
row,Relative binding amount,Binder
1,3.1,B1
2,3.2,B2
3,2.7,B3
4,3.1,B4
5,3.1,B5
6,3.2,B6
7,3.4,B7
8,2.8,B8

# Biological target: human FcγRIIb extracellular domain with C-terminal His-tag (human) (UniProt P31994)
# Assay: SPR (Biacore T200), FcγRIIb 1000 nM, amount bound per unit captured antibody
row,Binding amount,Binder
1,0.025,B1
2,0.026,B2
3,0.022,B3
4,0.025,B4
5,0.025,B5
6,0.026,B6
7,0.028,B7
8,0.022,B8
